In patent US20030068675, “Position dependent recognition of GNN nucleotide triplets by zinc fingers” (published 2003) one finds Kd data, which are given here for 14 molecules.

The term Kd denotes a measure of binding affinity in units of concentration. Low readings indicate a tighter complex, high ones a looser complex.

Assay in all cases: EMSA
What all share (details): tags: MBP fusion
For orientation: Mobility shift assays separate free from complexed probe on a gel.

One data set has as its target ZFP SBS#845 (synthetic). The procedure, abridged:
(§1)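 Purified ZFP was titrated against labeled double-stranded target (1 nM or lower, at least 10-fold below expected Kd) carrying the natural binding site with flanks. Binding buffer was 10 mM Tris pH 7.5, 100 mM KCl, 1 mM MgCl2, 0.1 mM ZnCl2, 5 mM DTT, 10% glycerol, 0.02% BSA, with equilibration for at least 45 min. Bound and free target were separated on a 10% polyacrylamide gel.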

For another data set, the target named is T1, ZFP SBS#851 (synthetic).
T1 chain: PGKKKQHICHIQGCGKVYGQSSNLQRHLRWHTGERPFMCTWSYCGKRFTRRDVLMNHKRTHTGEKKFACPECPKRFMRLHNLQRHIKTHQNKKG
In short, it runs like this:
as §1

A further data set deals with ZFP SBS#844 (synthetic). In short, it runs like this:
as §1

The next data set addresses T2, ZFP SBS#846 (synthetic).
T2 chain: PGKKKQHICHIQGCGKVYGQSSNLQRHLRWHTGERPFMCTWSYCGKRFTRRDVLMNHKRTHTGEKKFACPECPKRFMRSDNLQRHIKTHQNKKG
The procedure, abridged: as §1

The target of the next data set is ZFP SBS#798 (synthetic, UniProt P08047). In short, it runs like this:
as §1

For a further data set, the target named is ZFP SBS#768 (synthetic). The procedure, abridged: as §1
Sequence of ZFP SBS#768 (synthetic) (chain, as listed by the source): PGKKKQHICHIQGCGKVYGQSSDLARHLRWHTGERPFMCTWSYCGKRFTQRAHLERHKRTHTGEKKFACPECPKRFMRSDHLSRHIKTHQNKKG
The next data set has as its target ZFP SBS#767 (synthetic, UniProt P08047). The procedure, abridged:
as §1

In another data set the target is ZFP SBS#799 (synthetic). In short, it runs like this:
as §1

The target of another data set is T3, ZFP SBS#663 (synthetic).
T3 chain: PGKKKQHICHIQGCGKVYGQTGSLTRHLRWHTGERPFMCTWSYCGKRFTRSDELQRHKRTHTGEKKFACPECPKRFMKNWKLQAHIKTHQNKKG
The procedure, abridged:
as §1

A further data set concerns the target T4, ZFP SBS#664 (synthetic).
T4 chain: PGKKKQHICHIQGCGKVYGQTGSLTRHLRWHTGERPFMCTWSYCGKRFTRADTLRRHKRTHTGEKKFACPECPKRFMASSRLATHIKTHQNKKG
In short, it runs like this:
as §1

In a further data set the target is ZFP SBS#662 (synthetic, UniProt P08047). In short, it runs like this:
as §1

For another data set, the target named is T5, ZFP SBS#797 (synthetic).
T5 chain: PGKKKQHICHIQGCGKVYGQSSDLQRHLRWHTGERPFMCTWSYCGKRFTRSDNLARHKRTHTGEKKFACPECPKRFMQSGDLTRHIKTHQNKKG
The procedure, abridged: as §1

Another data set deals with ZFP SBS#764 (synthetic). In short, it runs like this: as §1
The next data set concerns the target T6, ZFP SBS#835 (synthetic).
T6 chain: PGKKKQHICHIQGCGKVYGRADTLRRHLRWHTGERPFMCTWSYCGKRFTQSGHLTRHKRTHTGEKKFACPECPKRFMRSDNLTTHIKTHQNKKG
The procedure, abridged: as §1

In another data set the target is T7, ZFP SBS#847 (synthetic).
T7 chain: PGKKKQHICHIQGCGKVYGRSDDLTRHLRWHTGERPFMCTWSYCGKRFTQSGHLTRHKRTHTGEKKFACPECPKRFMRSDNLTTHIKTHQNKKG
In short, it runs like this:
as §1

Another data set addresses T8, ZFP SBS#775 (synthetic).
T8 chain: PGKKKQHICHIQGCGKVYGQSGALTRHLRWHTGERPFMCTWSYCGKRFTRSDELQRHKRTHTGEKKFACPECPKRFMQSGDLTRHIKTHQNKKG
The procedure, abridged:
as §1

The next data set deals with T9, ZFP SBS#774 (synthetic).
T9 chain: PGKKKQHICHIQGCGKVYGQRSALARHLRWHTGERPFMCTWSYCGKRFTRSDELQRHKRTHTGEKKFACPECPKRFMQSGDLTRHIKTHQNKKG
In short, it runs like this:
as §1

The next data set concerns the target ZFP SBS#773 (synthetic). In short, it runs like this:
as §1

For another data set, the target named is T10, ZFP SBS#805 (synthetic).
T10 chain: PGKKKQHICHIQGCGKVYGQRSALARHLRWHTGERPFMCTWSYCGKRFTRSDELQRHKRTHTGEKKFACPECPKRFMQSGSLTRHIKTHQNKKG
In short, it runs like this:
as §1

The target of another data set is T11, ZFP SBS#839 (synthetic).
T11 chain: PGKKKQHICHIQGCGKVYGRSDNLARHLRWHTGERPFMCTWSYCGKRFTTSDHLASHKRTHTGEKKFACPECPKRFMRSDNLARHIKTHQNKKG
In short, it runs like this:
as §1

Another data set deals with T12, ZFP SBS#840 (synthetic).
T12 chain: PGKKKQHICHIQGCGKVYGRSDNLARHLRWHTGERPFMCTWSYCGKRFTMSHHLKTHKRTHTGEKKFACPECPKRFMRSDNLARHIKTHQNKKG
In short, it runs like this: as §1

For the next data set, the target named is T13, ZFP SBS#841 (synthetic).
T13 chain: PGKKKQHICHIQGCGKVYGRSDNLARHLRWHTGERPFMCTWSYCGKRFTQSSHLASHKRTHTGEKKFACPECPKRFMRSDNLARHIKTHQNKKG
In short, it runs like this: as §1

The target of another data set is ZFP SBS#825 (synthetic). The procedure, abridged: as §1
A further data set concerns the target ZFP SBS#818 (synthetic). In short, it runs like this: as §1
Another data set deals with ZFP SBS#763 (synthetic). In short, it runs like this:
as §1

Another data set deals with T14, ZFP SBS#849 (synthetic).
T14 chain: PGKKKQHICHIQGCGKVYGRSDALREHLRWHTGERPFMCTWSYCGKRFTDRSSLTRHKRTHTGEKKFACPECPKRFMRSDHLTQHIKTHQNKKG
In short, it runs like this: as §1

The next data set has as its target T15, ZFP SBS#837 (synthetic).
T15 chain: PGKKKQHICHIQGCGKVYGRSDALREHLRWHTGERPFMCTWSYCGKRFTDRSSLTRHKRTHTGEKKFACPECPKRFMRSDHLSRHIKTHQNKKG
The procedure, abridged: as §1

Another data set concerns the target T16, ZFP SBS#838 (synthetic).
T16 chain: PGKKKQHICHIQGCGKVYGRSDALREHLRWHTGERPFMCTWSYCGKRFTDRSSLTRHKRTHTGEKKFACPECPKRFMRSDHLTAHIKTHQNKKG
The procedure, abridged:
as §1

Another data set deals with T17, ZFP SBS#766 (synthetic).
T17 chain: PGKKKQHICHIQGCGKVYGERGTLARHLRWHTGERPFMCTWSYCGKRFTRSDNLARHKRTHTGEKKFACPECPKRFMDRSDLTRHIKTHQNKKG
The procedure, abridged: as §1

The next data set deals with T18, ZFP SBS#765 (synthetic).
T18 chain: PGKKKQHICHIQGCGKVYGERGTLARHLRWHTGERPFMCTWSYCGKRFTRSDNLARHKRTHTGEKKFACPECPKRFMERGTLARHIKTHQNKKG
In short, it runs like this: as §1

A further data set deals with T19, ZFP SBS#834 (synthetic).
T19 chain: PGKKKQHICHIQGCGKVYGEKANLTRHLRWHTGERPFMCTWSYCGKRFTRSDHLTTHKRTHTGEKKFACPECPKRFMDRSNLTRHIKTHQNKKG
In short, it runs like this:
as §1

For another data set, the target named is T20, ZFP SBS#833 (synthetic).
T20 chain: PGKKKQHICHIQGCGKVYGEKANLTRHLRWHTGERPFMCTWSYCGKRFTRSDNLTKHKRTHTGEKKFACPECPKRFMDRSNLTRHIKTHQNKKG
In short, it runs like this: as §1

The target of the next data set is T21, ZFP SBS#832 (synthetic).
T21 chain: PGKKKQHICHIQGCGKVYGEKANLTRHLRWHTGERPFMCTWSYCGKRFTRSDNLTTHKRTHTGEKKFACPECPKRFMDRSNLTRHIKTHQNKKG
The procedure, abridged:
as §1

The target of the next data set is T22, ZFP SBS#800 (synthetic).
T22 chain: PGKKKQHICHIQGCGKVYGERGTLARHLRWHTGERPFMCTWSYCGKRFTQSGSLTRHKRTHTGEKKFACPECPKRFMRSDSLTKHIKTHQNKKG
In short, it runs like this:
as §1

The target of a further data set is T23, ZFP SBS#770 (synthetic).
T23 chain: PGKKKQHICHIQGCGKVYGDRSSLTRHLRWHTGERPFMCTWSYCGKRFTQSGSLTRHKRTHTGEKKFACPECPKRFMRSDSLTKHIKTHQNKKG
The procedure, abridged: as §1

The next data set has as its target ZFP SBS#831 (synthetic). The procedure, abridged:
as §1

A further data set addresses ZFP SBS#830 (synthetic). In short, it runs like this: as §1

Sequence of ZFP SBS#845 (synthetic) (chain, as listed by the source): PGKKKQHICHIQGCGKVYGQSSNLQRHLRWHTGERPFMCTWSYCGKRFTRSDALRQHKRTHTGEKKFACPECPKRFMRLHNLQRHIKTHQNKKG
Sequence of ZFP SBS#662 (P08047 other isoform, or with tags, fused parts or gaps): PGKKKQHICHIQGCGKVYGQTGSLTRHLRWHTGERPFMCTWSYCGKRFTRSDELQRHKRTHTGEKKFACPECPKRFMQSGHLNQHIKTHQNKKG
Sequence of ZFP SBS#763 (synthetic) (chain, as listed by the source): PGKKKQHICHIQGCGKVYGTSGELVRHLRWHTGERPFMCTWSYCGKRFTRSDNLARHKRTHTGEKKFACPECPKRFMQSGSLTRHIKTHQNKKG
Sequence of ZFP SBS#798 (P08047 other isoform, or with tags, fused parts or gaps): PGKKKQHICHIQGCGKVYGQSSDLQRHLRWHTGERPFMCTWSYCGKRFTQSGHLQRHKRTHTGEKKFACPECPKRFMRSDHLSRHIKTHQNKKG
Sequence of ZFP SBS#799 (synthetic) (chain, as listed by the source): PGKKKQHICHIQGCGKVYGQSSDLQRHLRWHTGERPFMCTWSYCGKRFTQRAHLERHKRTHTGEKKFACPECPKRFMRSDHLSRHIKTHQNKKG
Sequence of ZFP SBS#844 (synthetic) (chain, as listed by the source): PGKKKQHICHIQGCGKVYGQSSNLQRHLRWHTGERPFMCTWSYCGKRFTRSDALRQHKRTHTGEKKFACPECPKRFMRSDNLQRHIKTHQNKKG
Sequence of ZFP SBS#767 (P08047 other isoform, or with tags, fused parts or gaps): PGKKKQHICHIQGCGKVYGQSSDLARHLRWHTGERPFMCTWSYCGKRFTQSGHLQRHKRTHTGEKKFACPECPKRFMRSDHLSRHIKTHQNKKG
Sequence of ZFP SBS#830 (synthetic) (chain, as listed by the source): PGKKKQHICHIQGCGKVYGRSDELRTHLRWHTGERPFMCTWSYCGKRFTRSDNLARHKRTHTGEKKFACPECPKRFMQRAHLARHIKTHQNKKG
Sequence of ZFP SBS#831 (synthetic) (chain, as listed by the source): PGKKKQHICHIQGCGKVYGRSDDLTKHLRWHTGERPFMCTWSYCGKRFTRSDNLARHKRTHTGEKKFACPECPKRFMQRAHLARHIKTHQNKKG

B1: GAGATGGATC (dsDNA)
DNA 1: GAGATGGATC
DNA 2: GATCCATCTC
On to B1, for which the Kd is 112 nM in the data set with ZFP SBS#845, 74 nM with ZFP SBS#851, 444 nM with ZFP SBS#844 and 890 nM with ZFP SBS#846.

B2: GGGGGAGCTG (dsDNA)
DNA 1: GGGGGAGCTG
DNA 2: CAGCTCCCCC
B2: the Kd with ZFP SBS#798 came to 3 nM; in the data set with ZFP SBS#768, 2000 nM; in the data set with ZFP SBS#767, 335 nM; in the data set with ZFP SBS#799, 1.85 nM.

B3: AGAGCGGCAC (dsDNA)
DNA 1: AGAGCGGCAC
DNA 2: GTGCCGCTCT
With B3, the results for the Kd in the data set with ZFP SBS#663, with ZFP SBS#664 and in the data set with ZFP SBS#662 were 115 nM, 125 nM and 50 nM, respectively.

B4: GCAGAGGCTG (dsDNA)
DNA 1: GCAGAGGCTG
DNA 2: CAGCCTCTGC
With B4, the Kd with ZFP SBS#797 amounted to 17.5 nM; with ZFP SBS#764 it was 255 nM.

B5: TAGGGAGCGT (dsDNA)
DNA 1: TAGGGAGCGT
DNA 2: ACGCTCCCTA
Consider B5, for which the Kd in the data set with ZFP SBS#835 and with ZFP SBS#847 was 150 nM throughout.

B6: GCAGCGGTAG (dsDNA)
DNA 1: GCAGCGGTAG
DNA 2: CTACCGCTGC
Turning to B6, the Kd is 265 nM in the data set with ZFP SBS#775, 258 nM with ZFP SBS#774, 1250 nM in the data set with ZFP SBS#773 and 500 nM with ZFP SBS#805.

B7: GAGTGTGAGG (dsDNA)
DNA 1: GAGTGTGAGG
DNA 2: CCTCACACTC
As for B7, the Kd with ZFP SBS#839 was 625 nM; in the data set with ZFP SBS#840, 625 nM; in the data set with ZFP SBS#841, 300 nM.

B8: GAATGGGCAG (dsDNA)
DNA 1: GAATGGGCAG
DNA 2: CTGCCCATTC
Take B8: the Kd with ZFP SBS#825 is 37.3 nM; with ZFP SBS#818, 167 nM.

B9: GCAGAGGCTC (dsDNA)
DNA 1: GCAGAGGCTC
DNA 2: GAGCCTCTGC
The molecule B9 displayed a Kd with ZFP SBS#763 of 275 nM.

B10: GGGGCCCTGG (dsDNA)
DNA 1: GGGGCCCTGG
DNA 2: CCAGGGCCCC
Turning to B10, the Kd worked out at 29.1 nM with ZFP SBS#849, 222 nM in the data set with ZFP SBS#837 and 300 nM with ZFP SBS#838.

B11: GCCGAGGCCG (dsDNA)
DNA 1: GCCGAGGCCG
DNA 2: CGGCCTCGGC
As to B11, the Kd in the data set with ZFP SBS#766 and with ZFP SBS#765 was 262 nM throughout.

B12: GACTAGGACC (dsDNA)
DNA 1: GACTAGGACC
DNA 2: GGTCCTAGTC
Take B12: the Kd was 186 nM with ZFP SBS#834, 136 nM in the data set with ZFP SBS#833 and 408 nM with ZFP SBS#832.

B13: TTGGCAGCCT (dsDNA)
DNA 1: TTGGCAGCCT
DNA 2: AGGCTGCCAA
B13: the Kd with ZFP SBS#800 amounted to 400 nM; with ZFP SBS#770 it was 325 nM.

B14: GGAGAGTCGG (dsDNA)
DNA 1: GGAGAGTCGG
DNA 2: CCGACTCTCC
As for B14, the figures for the Kd with ZFP SBS#831 and with ZFP SBS#830 were 700 nM and 683 nM, respectively.
